The record followed here is article PMC6239170.

Series [1] has as its target IMP3 RRM12 (UniProt O00425 1-161). The series can be described thus: ITC.
Series [2] has as its target IMP3 RRM12 Y5A (UniProt O00425 1-161, Y5A). Nature of the series: ITC. Background: ITC needs no label: the signal is the heat of the interaction.

Sequence of IMP3 RRM12 (O00425 1-161): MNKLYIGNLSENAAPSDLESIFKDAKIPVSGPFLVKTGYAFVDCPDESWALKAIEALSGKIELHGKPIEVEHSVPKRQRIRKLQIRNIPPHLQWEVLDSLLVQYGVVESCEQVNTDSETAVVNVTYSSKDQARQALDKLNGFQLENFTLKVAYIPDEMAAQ
Sequence of IMP3 RRM12 Y5A (O00425 1-161 Y5A): as the sequence (O00425 1-161) above, with Y5A counted along it

With UUUU (ssRNA), in series [1], the binding result is recorded as “no binding”.

For the molecule ACAC (ssRNA), the binding result in series [2] is “no binding”.

Regarding GGGG (ssRNA), the binding result in series [1] was “no binding”.
